Like-named read-outs stand apart in the source and are kept apart here.
Columns and labels:
Test in all cases: EMSA
CST (CTC1-STN1-TEN1) = CST (CTC1-STN1-TEN1) (human, UniProt Q2NKJ3;Q9H668;Q86WV5 1-1217;1-368;1-123)
RPA [1] = target: T1, RPA (UniProt P27694;P15927;P35244 1-616;1-270;1-121)
RPA [2] = target: T1, RPA; remark: listed apart in the source

T1 sequence (P27694 whole entry, chain 1 of 3): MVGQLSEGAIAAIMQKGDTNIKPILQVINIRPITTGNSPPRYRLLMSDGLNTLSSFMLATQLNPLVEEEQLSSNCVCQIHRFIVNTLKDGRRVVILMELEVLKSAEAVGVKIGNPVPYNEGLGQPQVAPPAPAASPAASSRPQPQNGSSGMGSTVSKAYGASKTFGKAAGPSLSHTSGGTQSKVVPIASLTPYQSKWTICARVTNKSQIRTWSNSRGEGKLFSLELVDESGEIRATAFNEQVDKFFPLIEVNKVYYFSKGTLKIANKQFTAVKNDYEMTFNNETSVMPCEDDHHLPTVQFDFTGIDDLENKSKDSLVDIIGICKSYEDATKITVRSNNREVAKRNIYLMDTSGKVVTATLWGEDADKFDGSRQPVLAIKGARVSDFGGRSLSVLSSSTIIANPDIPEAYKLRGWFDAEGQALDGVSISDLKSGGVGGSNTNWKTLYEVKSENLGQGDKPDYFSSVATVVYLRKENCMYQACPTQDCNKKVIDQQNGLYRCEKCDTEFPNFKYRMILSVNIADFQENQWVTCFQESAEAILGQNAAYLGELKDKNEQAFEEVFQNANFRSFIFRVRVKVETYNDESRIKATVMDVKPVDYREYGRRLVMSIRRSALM
T1 sequence (P15927 whole entry, chain 2 of 3): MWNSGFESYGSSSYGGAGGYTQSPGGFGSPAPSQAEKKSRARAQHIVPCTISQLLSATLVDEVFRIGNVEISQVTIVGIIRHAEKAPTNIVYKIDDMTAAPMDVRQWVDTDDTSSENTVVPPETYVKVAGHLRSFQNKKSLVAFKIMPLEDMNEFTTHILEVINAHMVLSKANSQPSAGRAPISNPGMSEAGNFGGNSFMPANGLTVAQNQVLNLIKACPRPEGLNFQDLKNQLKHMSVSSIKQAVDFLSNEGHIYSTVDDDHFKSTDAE
T1 sequence (P35244 whole entry, chain 3 of 3): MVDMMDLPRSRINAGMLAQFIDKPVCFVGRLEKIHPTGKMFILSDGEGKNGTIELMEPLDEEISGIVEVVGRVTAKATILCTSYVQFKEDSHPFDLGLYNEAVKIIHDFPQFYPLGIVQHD
Sequence of CST (CTC1-STN1-TEN1) (Q2NKJ3 whole entry, chain 1 of 3): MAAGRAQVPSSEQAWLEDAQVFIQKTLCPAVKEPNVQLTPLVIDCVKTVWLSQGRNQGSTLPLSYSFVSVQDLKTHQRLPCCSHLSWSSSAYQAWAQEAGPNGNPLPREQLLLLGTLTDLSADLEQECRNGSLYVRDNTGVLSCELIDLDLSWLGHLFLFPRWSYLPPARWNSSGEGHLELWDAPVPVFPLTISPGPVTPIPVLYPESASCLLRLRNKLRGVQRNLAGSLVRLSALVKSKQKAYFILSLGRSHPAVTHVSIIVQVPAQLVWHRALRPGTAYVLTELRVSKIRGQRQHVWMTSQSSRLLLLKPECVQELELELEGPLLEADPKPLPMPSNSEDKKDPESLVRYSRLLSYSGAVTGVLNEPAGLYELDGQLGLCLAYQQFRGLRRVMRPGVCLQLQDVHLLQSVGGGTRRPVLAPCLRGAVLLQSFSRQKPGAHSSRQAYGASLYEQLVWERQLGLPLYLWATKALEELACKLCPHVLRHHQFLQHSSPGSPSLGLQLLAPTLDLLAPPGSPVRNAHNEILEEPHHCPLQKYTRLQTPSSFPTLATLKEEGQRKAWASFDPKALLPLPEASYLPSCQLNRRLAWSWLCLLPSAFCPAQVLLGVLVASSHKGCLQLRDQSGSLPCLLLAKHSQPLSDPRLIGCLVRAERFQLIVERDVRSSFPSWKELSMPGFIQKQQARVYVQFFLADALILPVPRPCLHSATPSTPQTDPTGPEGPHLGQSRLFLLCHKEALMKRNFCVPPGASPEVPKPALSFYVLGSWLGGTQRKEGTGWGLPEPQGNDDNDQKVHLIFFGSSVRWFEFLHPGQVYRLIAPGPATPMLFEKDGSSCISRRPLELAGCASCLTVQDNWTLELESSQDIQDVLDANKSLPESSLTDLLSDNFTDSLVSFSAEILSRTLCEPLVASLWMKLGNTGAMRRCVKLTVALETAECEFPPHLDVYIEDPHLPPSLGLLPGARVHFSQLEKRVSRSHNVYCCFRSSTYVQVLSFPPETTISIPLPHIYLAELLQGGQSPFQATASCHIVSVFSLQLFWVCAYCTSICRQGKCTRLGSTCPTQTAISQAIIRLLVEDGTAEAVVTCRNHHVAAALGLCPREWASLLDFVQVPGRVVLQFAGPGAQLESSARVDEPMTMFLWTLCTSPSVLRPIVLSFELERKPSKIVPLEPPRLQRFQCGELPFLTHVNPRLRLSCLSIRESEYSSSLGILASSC
Sequence of CST (CTC1-STN1-TEN1) (Q9H668 whole entry, chain 2 of 3): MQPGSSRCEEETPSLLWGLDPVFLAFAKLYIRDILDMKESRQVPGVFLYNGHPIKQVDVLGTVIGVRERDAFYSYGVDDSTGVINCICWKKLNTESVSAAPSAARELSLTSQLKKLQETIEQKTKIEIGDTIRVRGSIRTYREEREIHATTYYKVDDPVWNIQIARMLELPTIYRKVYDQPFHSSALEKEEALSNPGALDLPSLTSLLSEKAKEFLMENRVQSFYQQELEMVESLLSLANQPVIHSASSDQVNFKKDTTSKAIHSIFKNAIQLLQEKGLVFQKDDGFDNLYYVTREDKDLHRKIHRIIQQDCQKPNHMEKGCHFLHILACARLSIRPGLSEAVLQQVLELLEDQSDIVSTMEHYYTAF
Sequence of CST (CTC1-STN1-TEN1) (Q86WV5 whole entry, chain 3 of 3): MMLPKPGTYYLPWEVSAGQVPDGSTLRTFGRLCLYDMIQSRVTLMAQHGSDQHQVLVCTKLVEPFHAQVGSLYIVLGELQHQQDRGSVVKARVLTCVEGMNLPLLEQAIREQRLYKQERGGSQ

Binder | Kd (CST (CTC1-STN1-TEN1)) [nM] | Kd (RPA [1]) [nM] | Kd (RPA [2]) [nM]
GGGTTAGGGTTAGGGTTAGGG (ssDNA) [Tel21] | 1.3 | 1.9 | 
GGGTTAGGGTTAGGGTTAGGG (structured_DNA) [Tel21 G4] |  |  | 5.5
